Data as given in publication PMC9977310, “ABT1 modifies SMARD1 pathology via interactions with IGHMBP2 and stimulation of ATPase and helicase activity” (JCI Insight, 2023).

Assays:
[1] = test system: IGHMBP2;ABT1 (Homo sapiens;Mus musculus); test: MST; conditions: MST: 100 nM NT-647-labeled IGHMBP2 (+/- 100 nM ABT1), RNA titrated from 1 uM (single) or 500 nM each (two RNAs), buffer, salt, pH and temperature not stated. …
[2] = target: T1, immunoglobulin mu DNA binding protein 2 (IGHMBP2), human, full length, thioredoxin-6xHis fusion from pET32b (human, UniProt P38935 1-993, RED-Tris-NTA (NT-647) fluorescent label in the MST); test: not stated; stoichiometry of ABT1 to IGHMBP2, Supplemental Figure 1; told in the paragraph on DLS, method not given; conditions: both partners purified
T1 construct: IGHMBP2, human, full-length cDNA synthesized (GenScript), cloned into pET32b; 110 kDa IGHMBP2 + ~14 kDa thioredoxin-6xHis, predicted ~124 kDa; pET32b may add further vector-coded residues (S-tag, linkers) between the tags and the protein; also called pET32b-IGHMBP2; pET32-IGHMBP2; source: bacterial cell lysate in the immunoprecipitation
T1 sequence (looked up): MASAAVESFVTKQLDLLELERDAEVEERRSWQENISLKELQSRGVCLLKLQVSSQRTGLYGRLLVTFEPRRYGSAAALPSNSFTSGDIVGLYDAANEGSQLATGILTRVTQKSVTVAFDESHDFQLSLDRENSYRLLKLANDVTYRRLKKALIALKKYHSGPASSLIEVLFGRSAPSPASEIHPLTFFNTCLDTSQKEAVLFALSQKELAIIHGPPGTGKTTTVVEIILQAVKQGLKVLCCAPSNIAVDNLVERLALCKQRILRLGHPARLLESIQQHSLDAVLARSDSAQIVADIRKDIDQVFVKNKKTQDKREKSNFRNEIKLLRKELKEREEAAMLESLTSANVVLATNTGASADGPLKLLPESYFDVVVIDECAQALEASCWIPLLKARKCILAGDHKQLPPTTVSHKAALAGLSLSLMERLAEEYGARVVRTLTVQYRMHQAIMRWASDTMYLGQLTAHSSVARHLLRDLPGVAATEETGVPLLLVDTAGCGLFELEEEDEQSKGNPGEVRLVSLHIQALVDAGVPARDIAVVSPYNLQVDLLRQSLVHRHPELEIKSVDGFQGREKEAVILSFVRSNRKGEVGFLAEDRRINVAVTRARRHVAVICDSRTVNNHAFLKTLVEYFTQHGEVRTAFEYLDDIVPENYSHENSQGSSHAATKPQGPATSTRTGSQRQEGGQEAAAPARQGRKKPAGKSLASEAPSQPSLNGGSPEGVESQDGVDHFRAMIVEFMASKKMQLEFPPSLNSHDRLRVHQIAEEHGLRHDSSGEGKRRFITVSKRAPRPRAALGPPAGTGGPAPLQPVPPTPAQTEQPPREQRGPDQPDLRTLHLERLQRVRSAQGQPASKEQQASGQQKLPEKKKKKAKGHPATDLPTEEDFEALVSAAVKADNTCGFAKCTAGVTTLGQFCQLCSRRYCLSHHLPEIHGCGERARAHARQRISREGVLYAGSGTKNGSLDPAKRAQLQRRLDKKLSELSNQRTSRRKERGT

[3] = target: T1, immunoglobulin mu DNA binding protein 2 …; test: MST; IGHMBP2 RED-Tris-NTA labelled, constant 100 nM; partner titrated (1 μM to 1.53 × 10^5 μM as printed); fit to a quadratic equation, MO.Affinity Analysis; conditions: both partners purified
[4] = target: T1, immunoglobulin mu DNA binding protein 2 …; test: cell-based or functional assay

For 5' ETS RNA + U3 snoRNA (annealed), which Kd ([1]; 100 nM IGHMBP2 + 100 nM ABT1, RNAs from 500 nM each) is on record?
Its Kd is 28 nM.

How did the Kd [1] turn out when 5' ETS RNA (47S pre-rRNA) was run?
Its Kd is > 697 nM.

How did the Kd [1] turn out when U3 snoRNA was run?
Its Kd is 35 nM.

B1: activator of basal transcription 1 (ABT1), mouse, full length, GST fusion from pGEX-6P1 (natural protein, UniProt Q9QYL7 1-269, looked up)
chain: MVKAGELVEQQKAAMEEEANAEAAEDQEEPEDTACSSSSKKKKKVVPGIVYLGHVPPRFRPLHVRNLLSAYGEVGRVFFQAEDHFVKRKKKAAAAAGGKKGAKYSKDYTEGWVEFRDKRVAKRVAASLHNTPMGARKRSPFRYDLWNLKYLHRFTWSHLSEHLAFERQVRRQRLRAEVAQAKRETDFYLRNVEQGQHFLAADGDATRPNSSWTFTQRPTEQEFRARKAARPGGRERARLANVEDQARSNRGLLAKIFGAPLPAESKEKP
notes: ABT1, mouse, full-length cDNA synthesized (GenScript), cloned into pGEX6P1; 31 kDa ABT1 + ~26 kDa GST, predicted ~57 kDa; Mouse ABT1 was tested against human IGHMBP2; No cleavage of GST is described; also called GST-ABT1; pGEX-ABT1; source: E. coli (BL21 and Rosetta strains used), purified on GST beads, eluted with reduced glutathione; bacterial cell lysate in the immunoprecipitation
With B1 as the molecule, how does the “stoichiometry N” value [2] read?
Its value is ~1.

What about the Kd [3] of the same molecule?
The Kd was ~52 nM.

What about the “ATPase activity of IGHMBP2 (100 nM) with increasing ABT1 up to 120 nM (malachite green, free phosphate), fold increase over IGHMBP2 alone” value [4] of the same molecule?
The value was 1.96 fold.

What about the “helicase activity of IGHMBP2 (100 nM) with increasing ABT1 up to 120 nM (Cy3-labelled DNA substrate), fold increase over IGHMBP2 alone” value [4] of the same molecule?
Its value is 1.41 fold.

And the “nucleic acid unwinding rate of TP31-18mer duplex, 100 nM IGHMBP2 + 100 nM ABT1, 1-7 min (IGHMBP2 alone 1.141/min; printed as a 1.42-fold increase)” value [4]?
Its value is 5.96 min⁻¹.

And the “rate of DNA substrate unwinding/nM protein, 100 nM IGHMBP2 with ABT1 20-100 nM, 7 min (IGHMBP2 alone 0.005/min; printed as 1.84-fold increased activity)” value [4]?
Its value is 0.01 min⁻¹.
